Drawing on patent US20100135997A1 (MEDGENE, published 2010), this text covers Kd and koff for 34 molecules.

Numbering of substitutions follows the chain as printed.

First the molecules themselves.
B1: SEQ ID NO 67 (receptor)
chain: MHLPKPTLWAEPGSVITMDQPVTLRCQGGQETQEYRLYREKKTAPWITRIPQELVKKGQFPIPSITWEHAGRYRCYYGSDTSQWSASSDPLELVVTGVYIKPTLSAQPSPVVNSGGNVTLQCDSQVAFDGFILCKEGEDEHPQCLNSQPHARGSSRAIFSVGPVSPSRRWWYRCYAYDSNSPYEWSLPSDLLELDVDGC
notes: mutated soluble two domain ILT-2
B2: SEQ ID NO 66 (receptor)
chain: MHLPKPTLWAEPGSVITMDQPVTLRCQGGQETQEYRLYREKKTAPWITRIPQELVKKGQFPIPSITWEHAGRYRCYYGSDTSQWSASSDPLELVVTGVYIKPTLSAQPSPVVNSGGNVTLQCDSQVAFDGFILCKEGEDEHPQCLNSQPHARGSSRAIFSVGPVSPSRRWWYRCYAYDSNSPYEWSLPSDLLELDVDG
notes: as for B1
B3: SEQ ID NO 109 (receptor)
chain: B2 chain
notes: as for B1
B4: SEQ ID NO 25 (receptor)
chain: MHLPKPTLWAEPGSVITLQSPVTLRCQGGQETQQYRLYREKKTAPWITRIPQELVKKGQFPIPSITWEHAGRYRCYYGSDTRQWSASSDPLELVVTGVYIKPTLSAQPSPVVNSGGNVTLQCDSQVAFDGFILCKEGEDDHPQCLNSQPHARGSSRAIFSVGPVSPSRRWRYRCYAYVAWAPYEWSLPSDLLELDVDG
notes: as for B1
B5: SEQ ID NO 6 (receptor)
chain: B4 chain with V178D, A179S, W180N, A181S
notes: as for B1
B6: SEQ ID NO 114 (receptor)
chain: B2 chain with M18L, D19G, Q20S
notes: as for B1
B7: SEQ ID NO 112 (receptor)
chain: B2 chain with K41R
notes: as for B1
B8: SEQ ID NO 49 (receptor)
chain: B4 chain with V22L, V178M, A179S, A181S
notes: as for B1
B9: SEQ ID NO 120 (receptor)
chain: B2 chain with Y76V, Y77I, G78Q, S79R, D80G, S82A, Q83G, W84R, A86E
notes: as for B1
B10: SEQ ID NO 118 (receptor)
chain: B2 chain with S79T, D80Q, S82A, Q83G, W84R, A86E
notes: as for B1
B11: SEQ ID NO 50 (receptor)
chain: B4 chain with V22L, V178M, A179S
notes: as for B1
B12: SEQ ID NO 24 (receptor)
chain: B4 chain with V178P, A179I, A181T
notes: as for B1
B13: SEQ ID NO 113 (receptor)
chain: B2 chain with M18L, D19G
notes: as for B1
B14: SEQ ID NO 127 (receptor)
chain: B2 chain with C134S, C144S
notes: as for B1
B15: SEQ ID NO 125 (receptor)
chain: B2 chain with I158E
notes: as for B1
B16: SEQ ID NO 110 (receptor)
chain: B2 chain with W171R
notes: as for B1
B17: SEQ ID NO 126 (receptor)
chain: B2 chain with L187D
notes: as for B1
B18: SEQ ID NO 28 (receptor)
chain: B4 chain with V178M, A179S
notes: as for B1
B19: SEQ ID NO 115 (receptor)
chain: B2 chain with M18L, D19R, Q20S
notes: as for B1
B20: SEQ ID NO 27 (receptor)
chain: B4 chain with V178P, A181T
notes: as for B1
B21: SEQ ID NO 26 (receptor)
chain: B4 chain with V178M, A179N
notes: as for B1
B22: SEQ ID NO 117 (receptor)
chain: B2 chain with M18L, D19E, Q20S
notes: as for B1
B23: SEQ ID NO 111 (receptor)
chain: B2 chain with R49L, E140G, R173W
notes: as for B1
B24: SEQ ID NO 29 (receptor)
chain: B4 chain with V178M, A179S, A181S
notes: as for B1
B25: SEQ ID NO 122 (receptor)
chain: B2 chain with S79T, D80Q
notes: as for B1
B26: SEQ ID NO 119 (receptor)
chain: B2 chain with Y76M, Y77Q, G78Y, S79T, D80L, S82A, Q83G, W84R, A86E
notes: as for B1
B27: SEQ ID NO 116 (receptor)
chain: B2 chain with M18L, D19Q, Q20S
notes: as for B1
B28: SEQ ID NO 121 (receptor)
chain: B2 chain with S79G, D80Q, T81E, S82G, Q83A, W84R, A86E
notes: as for B1
B29: SEQ ID NO 42 (receptor)
chain: B4 chain with V22L, V178D, A179S, W180N, A181S
notes: as for B1
B30: SEQ ID NO 124 (receptor)
chain: B2 chain with L145D
notes: as for B1
B31: SEQ ID NO 60 (receptor)
chain: MGHLPKPTLWAEPGSVITMDQPVTLRCQGGQETQQYRLYREKKTAPWITRIPQELVKKGQFPIPSITWEHAGRYRCYYGSDTRQWSASSDPLELVVTGVYIKPTLSAQPSPVVNSGGNVTLQCDSQVAFDGFILCKEGEDDHPQCLNSQPHARGSSRAIFSVGPVSPSRRWRYRCYAYDSNSPYEWTRGSDLLELDVDG
notes: as for B1
B32: SEQ ID NO 107 (receptor)
chain: MGHLPKPTLWAEPGSVITMDQPVTLRCQGGQETQEYRLYREKKTAPWITRIPQELVKKGQFPIPSITWEHAGRYRCIGRSQTSQWSASSDPLELVVTGIYLAPTLSAQPSPVVNSGGNVTLQCDSQVAFDGFILCKEGEDEHPQCLNSQPHARGSSRAIFSVGPVSPSRRWWYRCYAYDSNSPYEWSLPSDLLELLVL
notes: as for B1
B33: SEQ ID NO 108 (receptor)
chain: B32 chain with M19L, D20G
notes: as for B1
B34: soluble truncated variant of the Wild-Type ILT-2 molecule (domains D1 and D2) (receptor)
chain: MGHLPKPTLWAEPGSVITQGSPVTLRCQGGQETQEYRLYREKKTAPWITRIPQELVKKGQFPIPSITWEHAGRYRCYYGSDTAGRSESSDPLELVVTGAYIKPTLSAQPSPVVNSGGNVTLQCDSQVAFDGFILCKEGEDEHPQCLNSQPHARGSSRAIFSVGPVSPSRRWWYRCYAYDSNSPYEWSLPSDLLELLVL
notes: the entry carries the N-terminal Met used for bacterial expression; also called soluble wild-type ILT-2; soluble variant of wild-type ILT-2

For one assay, the target named is T1, HLA-A*0201 loaded with the Carcinoembryonic antigen (CEA)-derived … peptide (biotin on the C-terminal biotinylation tag).
T1 construct: Soluble, biotinylated, immobilised on a streptavidin chip
Description: Biacore SPR. The essentials:
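Surface plasmon resonance: soluble ILT-like molecule flowed at constant rate over flow cells bearing biotin-tag-captured peptide–MHC. Binding followed as RU change to derive affinity and kinetics.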
(In general: In SPR one partner is held on a chip, and binding of the other changes the refractive index at the surface.)
Molecule B1 showed a Kd not above 1000 nM and a koff not above 2 s⁻¹.

B2 showed a Kd not above 1000 nM and a koff not above 2 s⁻¹.

With B3, the Kd was not above 1000 nM and the koff was not above 2 s⁻¹.

As to B4, the Kd was not above 1000 nM and the koff was not above 2 s⁻¹.

Molecule B5 yielded a Kd not above 1000 nM and a koff not above 2 s⁻¹.

B6 returned a Kd not above 1000 nM and a koff not above 2 s⁻¹.

Take B7: the Kd is not above 1000 nM and the koff is not above 2 s⁻¹.

In the case of B8, the Kd is not above 1000 nM and the koff is not above 2 s⁻¹.

As to B9, the Kd is not above 1000 nM and the koff was not above 2 s⁻¹.

As to B10, the dissociation constant (Kd) is not above 1000 nM and the koff is not above 2 s⁻¹.

Consider B11, for which the Kd was not above 1000 nM and the koff was not above 2 s⁻¹.

Regarding B12, the Kd was not above 1000 nM and the koff was not above 2 s⁻¹.

Turning to B13, the Kd was not above 1000 nM and the koff was not above 2 s⁻¹.

The molecule B14 came in with a Kd not above 1000 nM and a koff not above 2 s⁻¹.

As for B15, the Kd is not above 1000 nM and the koff was not above 2 s⁻¹.

Turning to B16, the Kd was not above 1000 nM and the koff is not above 2 s⁻¹.

Take B17: the Kd was not above 1000 nM and the koff is not above 2 s⁻¹.

In the case of B18, the Kd was not above 1000 nM and the koff was not above 2 s⁻¹.

B19 had a Kd not above 1000 nM and a koff not above 2 s⁻¹.

B20: the Kd was not above 1000 nM and the koff was not above 2 s⁻¹.

B21 yielded a dissociation constant Kd not above 1000 nM and a koff not above 2 s⁻¹.

In the case of B22, the Kd was not above 1000 nM and the koff is not above 2 s⁻¹.

The molecule B23 displayed a Kd not above 1000 nM and a koff not above 2 s⁻¹.

Molecule B24 showed a Kd not above 1000 nM and a koff not above 2 s⁻¹.

B25 had a Kd not above 1000 nM and a koff not above 2 s⁻¹.

Turning to B26, the Kd is not above 1000 nM and the koff is not above 2 s⁻¹.

In the case of B27, the Kd is not above 1000 nM and the koff is not above 2 s⁻¹.

Regarding B28, the Kd is not above 1000 nM and the koff was not above 2 s⁻¹.

B29 came in with a Kd not above 1000 nM and a koff not above 2 s⁻¹.

Consider B30, for which the Kd was not above 1000 nM and the koff was not above 2 s⁻¹.

With B31, the Kd was not above 1000 nM and the koff is not above 2 s⁻¹.

B32 returned a Kd not above 1000 nM and a koff not above 2 s⁻¹.

Molecule B33 returned a Kd not above 1000 nM and a koff not above 2 s⁻¹.

A further assay has as its target T1, HLA-A*0201 loaded with the …. Description: Biacore SPR, biotinylated pMHC immobilised on streptavidin.
As to B34, the Kd was approximately 6000 nM and the koff amounted to 2.4 s⁻¹.

One may read the Kd as the free concentration of one partner at which half of the binding sites on the other are occupied at equilibrium, for simple one-to-one binding. The low end stands for a tighter complex, the high end for a looser complex. By koff is commonly meant a measure of how fast the partners let go of each other. Low values mean a long-lived complex, high ones a short-lived complex.
